In paper PMC8481289 (2021):

Tests used:
UBA5 Y372A = UBA5 Y372A (human, UniProt Q9GZZ9 1-404, Y372A); experiment: ITC
UBA5 333–404 = UBA5 333–404 (human, UniProt Q9GZZ9 333-404); experiment: ITC
Chain of UBA5 333–404 (Q9GZZ9 333-404): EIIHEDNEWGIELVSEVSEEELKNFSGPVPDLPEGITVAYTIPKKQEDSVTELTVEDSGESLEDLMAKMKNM

Chain of UBA5 Y372A (Q9GZZ9 whole entry Y372A): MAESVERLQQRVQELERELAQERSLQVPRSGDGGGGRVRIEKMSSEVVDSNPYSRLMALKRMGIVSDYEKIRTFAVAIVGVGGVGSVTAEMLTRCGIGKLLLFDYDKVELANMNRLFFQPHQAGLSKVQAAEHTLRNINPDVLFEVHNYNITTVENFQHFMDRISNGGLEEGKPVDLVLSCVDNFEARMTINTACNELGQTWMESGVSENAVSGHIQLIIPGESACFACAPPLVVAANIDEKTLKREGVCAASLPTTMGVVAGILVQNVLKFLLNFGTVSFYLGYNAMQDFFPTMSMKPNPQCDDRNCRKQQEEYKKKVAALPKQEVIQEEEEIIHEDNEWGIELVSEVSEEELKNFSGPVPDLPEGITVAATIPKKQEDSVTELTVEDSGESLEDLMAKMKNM

Kd (UBA5 Y372A): 1900 nM
Kd (UBA5 333–404): 2500 nM
B1: UFC1 (WT) (enzyme)
chain: MADEATRRVVSEIPVLKTNAGPRDRELWVQRLKEEYQSLIRYVENNKNADNDWFRLESNKEGTRWFGKCWYIHDLLKYEFDIEFDIPITYPTTAPEIAVPELDGKTAKMYRGGKICLTDHFKPLWARNVPKFGLAHLMALGLGPWLAVEIPDLIQKGVIQHKEKCNQ
